In publication PMC3334620 one finds binding signal (PBM E-score (-0.5 to 0.5)) data, which are given here for 40 sequences.

One data set concerns the target T1, Sko1 (Saccharomyces cerevisiae) (UniProt Q02100).
T1 sequence: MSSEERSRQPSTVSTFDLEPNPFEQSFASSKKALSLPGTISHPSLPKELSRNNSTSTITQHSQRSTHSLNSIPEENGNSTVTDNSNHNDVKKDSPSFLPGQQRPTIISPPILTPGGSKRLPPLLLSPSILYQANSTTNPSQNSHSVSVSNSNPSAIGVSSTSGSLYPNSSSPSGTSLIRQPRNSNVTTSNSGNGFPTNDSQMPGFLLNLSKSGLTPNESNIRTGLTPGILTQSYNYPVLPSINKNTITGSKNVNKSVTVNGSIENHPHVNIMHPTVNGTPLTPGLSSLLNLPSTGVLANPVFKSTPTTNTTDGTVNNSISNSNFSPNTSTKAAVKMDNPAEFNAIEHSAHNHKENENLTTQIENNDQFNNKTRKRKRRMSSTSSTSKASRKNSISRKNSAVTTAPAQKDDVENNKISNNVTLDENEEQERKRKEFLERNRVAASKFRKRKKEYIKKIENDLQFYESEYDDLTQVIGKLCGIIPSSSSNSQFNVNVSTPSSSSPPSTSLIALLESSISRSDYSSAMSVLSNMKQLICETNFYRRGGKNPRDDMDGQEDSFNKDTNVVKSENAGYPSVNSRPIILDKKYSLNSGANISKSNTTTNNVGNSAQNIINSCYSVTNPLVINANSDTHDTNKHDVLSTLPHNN
To be noted: 200 nM.
Sequence “ACGTAATA (double strand) [8-mer ACGTAATA]” displayed a binding signal (PBM E-score (-0.5 to 0.5)) of 0.493.

As to “TGACGTAA (double strand) [8-mer TGACGTAA]”, the binding signal (PBM E-score (-0.5 to 0.5)) was determined as 0.498.

The target of the next data set is T2, Zap1 (Saccharomyces cerevisiae) (UniProt P47043).
T2 sequence: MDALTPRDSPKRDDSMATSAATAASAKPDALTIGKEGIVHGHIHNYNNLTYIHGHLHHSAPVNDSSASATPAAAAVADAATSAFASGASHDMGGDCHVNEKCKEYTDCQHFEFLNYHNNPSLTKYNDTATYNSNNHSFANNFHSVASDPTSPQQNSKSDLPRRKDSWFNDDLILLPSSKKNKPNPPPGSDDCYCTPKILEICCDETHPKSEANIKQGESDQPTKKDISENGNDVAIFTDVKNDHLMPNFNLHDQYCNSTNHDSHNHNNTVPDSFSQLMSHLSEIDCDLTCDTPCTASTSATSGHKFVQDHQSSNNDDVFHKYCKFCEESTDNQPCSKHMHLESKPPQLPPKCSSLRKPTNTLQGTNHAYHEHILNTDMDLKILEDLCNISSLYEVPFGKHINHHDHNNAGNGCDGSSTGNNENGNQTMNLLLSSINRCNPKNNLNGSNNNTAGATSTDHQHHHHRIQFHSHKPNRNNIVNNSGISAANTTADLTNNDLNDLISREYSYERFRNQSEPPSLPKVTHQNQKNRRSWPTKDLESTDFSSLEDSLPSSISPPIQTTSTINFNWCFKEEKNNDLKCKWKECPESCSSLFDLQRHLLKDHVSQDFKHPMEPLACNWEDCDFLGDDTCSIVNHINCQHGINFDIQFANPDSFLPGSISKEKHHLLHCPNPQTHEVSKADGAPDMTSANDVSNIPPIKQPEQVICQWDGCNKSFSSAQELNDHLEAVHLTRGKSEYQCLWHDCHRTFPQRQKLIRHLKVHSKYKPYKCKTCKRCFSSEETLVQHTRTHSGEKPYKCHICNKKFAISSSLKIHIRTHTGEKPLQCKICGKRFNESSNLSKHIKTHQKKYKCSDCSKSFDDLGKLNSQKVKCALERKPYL
To be noted: 200 nM.
“AAAGGTTA (double strand) [8-mer AAAGGTTA]” gave a binding signal (PBM E-score (-0.5 to 0.5)) of 0.479.

Sequence “AAGGGTTA (double strand) [8-mer AAGGGTTA]” gave a binding signal (PBM E-score (-0.5 to 0.5)) of 0.489.

The sequence “AAGGTTAT (double strand) [8-mer AAGGTTAT]” registered a binding signal (PBM E-score (-0.5 to 0.5)) of 0.478.

“AGAGGTTA (double strand) [8-mer AGAGGTTA]” registered a binding signal (PBM E-score (-0.5 to 0.5)) of 0.476.

Regarding “AGGGGTTA (double strand) [8-mer AGGGGTTA]”, the binding signal (PBM E-score (-0.5 to 0.5)) came out at 0.479.

As to “AGGGTTAC (double strand) [8-mer AGGGTTAC]”, the binding signal (PBM E-score (-0.5 to 0.5)) came out at 0.484.

With “AGGGTTAT (double strand) [8-mer AGGGTTAT]”, the binding signal (PBM E-score (-0.5 to 0.5)) was 0.49.

“AGGTTACC (double strand) [8-mer AGGTTACC]” came in with a binding signal (PBM E-score (-0.5 to 0.5)) of 0.476.

As for “ATAACCCC (double strand) [8-mer ATAACCCC]”, the binding signal (PBM E-score (-0.5 to 0.5)) came out at 0.476.

In the case of “ATAACCTC (double strand) [8-mer ATAACCTC]”, the binding signal (PBM E-score (-0.5 to 0.5)) came to 0.487.

“CAGGGTTA (double strand) [8-mer CAGGGTTA]”: the binding signal (PBM E-score (-0.5 to 0.5)) is 0.477.

“CATAACCC (double strand) [8-mer CATAACCC]” had a binding signal (PBM E-score (-0.5 to 0.5)) of 0.482.

With “CCATAACC (double strand) [8-mer CCATAACC]”, the binding signal (PBM E-score (-0.5 to 0.5)) stood at 0.479.

“CGTAACCC (double strand) [8-mer CGTAACCC]” had a binding signal (PBM E-score (-0.5 to 0.5)) of 0.482.

“GGTTATGA (double strand) [8-mer GGTTATGA]” gave a binding signal (PBM E-score (-0.5 to 0.5)) of 0.48.

The next data set has as its target T3, Ybr033w (Saccharomyces cerevisiae) (UniProt P38073).
T3 sequence: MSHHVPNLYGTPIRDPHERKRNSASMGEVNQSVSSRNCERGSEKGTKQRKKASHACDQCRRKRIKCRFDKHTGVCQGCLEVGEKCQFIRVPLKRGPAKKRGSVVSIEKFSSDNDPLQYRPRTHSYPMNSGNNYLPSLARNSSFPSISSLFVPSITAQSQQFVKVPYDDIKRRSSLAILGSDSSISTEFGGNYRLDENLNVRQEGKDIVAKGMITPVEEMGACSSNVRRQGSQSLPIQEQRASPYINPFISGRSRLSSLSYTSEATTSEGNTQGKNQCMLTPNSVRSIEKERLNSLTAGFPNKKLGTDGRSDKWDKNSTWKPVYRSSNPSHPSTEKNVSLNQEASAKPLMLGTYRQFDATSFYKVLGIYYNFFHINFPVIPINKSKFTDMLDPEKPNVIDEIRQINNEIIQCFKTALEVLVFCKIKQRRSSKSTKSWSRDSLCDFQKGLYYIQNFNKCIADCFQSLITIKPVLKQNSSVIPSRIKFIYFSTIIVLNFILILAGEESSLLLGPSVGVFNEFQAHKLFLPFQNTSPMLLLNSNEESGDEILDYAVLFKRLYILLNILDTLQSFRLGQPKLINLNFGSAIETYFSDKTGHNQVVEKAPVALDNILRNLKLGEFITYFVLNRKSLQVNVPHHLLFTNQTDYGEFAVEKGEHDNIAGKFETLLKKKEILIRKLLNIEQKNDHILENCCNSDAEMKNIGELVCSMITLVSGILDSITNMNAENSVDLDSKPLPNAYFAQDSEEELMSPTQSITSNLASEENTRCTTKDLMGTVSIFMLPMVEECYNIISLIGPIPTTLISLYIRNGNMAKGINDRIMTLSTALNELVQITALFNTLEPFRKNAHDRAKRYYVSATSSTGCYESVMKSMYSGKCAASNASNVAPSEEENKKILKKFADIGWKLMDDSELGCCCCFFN
To be noted: 200 nM.
In the case of “AATGTTCC (double strand) [8-mer AATGTTCC]”, the binding signal (PBM E-score (-0.5 to 0.5)) is 0.471.

For “AATTATCC (double strand) [8-mer AATTATCC]”, the binding signal (PBM E-score (-0.5 to 0.5)) came out at 0.471.

Regarding “ATTAATCC (double strand) [8-mer ATTAATCC]”, the binding signal (PBM E-score (-0.5 to 0.5)) is 0.486.

In turn, “ATTATTCC (double strand) [8-mer ATTATTCC]” returned a binding signal (PBM E-score (-0.5 to 0.5)) of 0.479.

In the case of “ATTGTTCC (double strand) [8-mer ATTGTTCC]”, the binding signal (PBM E-score (-0.5 to 0.5)) came out at 0.484.

On to “ATTTATCC (double strand) [8-mer ATTTATCC]”, for which the binding signal (PBM E-score (-0.5 to 0.5)) stood at 0.485.

The sequence “ATTTTCCG (double strand) [8-mer ATTTTCCG]” came in with a binding signal (PBM E-score (-0.5 to 0.5)) of 0.472.

Sequence “ATTTTTCC (double strand) [8-mer ATTTTTCC]” yielded a binding signal (PBM E-score (-0.5 to 0.5)) of 0.486.

As for “CGGAAAAA (double strand) [8-mer CGGAAAAA]”, the binding signal (PBM E-score (-0.5 to 0.5)) was determined as 0.495.

“CGGAACAA (double strand) [8-mer CGGAACAA]” displayed a binding signal (PBM E-score (-0.5 to 0.5)) of 0.491.

Sequence “CGGATAAA (double strand) [8-mer CGGATAAA]” yielded a binding signal (PBM E-score (-0.5 to 0.5)) of 0.488.

As for “CGGATCAA (double strand) [8-mer CGGATCAA]”, the binding signal (PBM E-score (-0.5 to 0.5)) is 0.472.

Sequence “CGGATTAA (double strand) [8-mer CGGATTAA]” registered a binding signal (PBM E-score (-0.5 to 0.5)) of 0.482.

Regarding “GGAAAAAA (double strand) [8-mer GGAAAAAA]”, the binding signal (PBM E-score (-0.5 to 0.5)) was 0.472.

Sequence “GGAAAAAC (double strand) [8-mer GGAAAAAC]” yielded a binding signal (PBM E-score (-0.5 to 0.5)) of 0.476.

A further data set concerns the target T4, Cin5 (Saccharomyces cerevisiae) (UniProt P40917).
T4 sequence: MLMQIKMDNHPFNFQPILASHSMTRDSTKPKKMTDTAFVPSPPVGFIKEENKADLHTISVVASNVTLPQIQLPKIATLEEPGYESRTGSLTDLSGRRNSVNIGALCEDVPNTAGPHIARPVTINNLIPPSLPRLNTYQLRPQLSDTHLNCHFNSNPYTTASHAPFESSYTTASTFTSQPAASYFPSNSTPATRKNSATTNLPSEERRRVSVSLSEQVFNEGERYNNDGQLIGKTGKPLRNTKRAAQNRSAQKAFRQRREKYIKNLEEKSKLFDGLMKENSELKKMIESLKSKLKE
To be noted: 100 nM.
In turn, “ACGTAAGC (double strand) [8-mer ACGTAAGC]” yielded a binding signal (PBM E-score (-0.5 to 0.5)) of 0.483.

Regarding “ACGTAATA (double strand) [8-mer ACGTAATA]”, the binding signal (PBM E-score (-0.5 to 0.5)) was 0.455.

“CGTAAGCA (double strand) [8-mer CGTAAGCA]” displayed a binding signal (PBM E-score (-0.5 to 0.5)) of 0.463.

Consider “CGTAATCA (double strand) [8-mer CGTAATCA]”, for which the binding signal (PBM E-score (-0.5 to 0.5)) was found to be 0.458.

Consider “CTTACGTA (double strand) [8-mer CTTACGTA]”, for which the binding signal (PBM E-score (-0.5 to 0.5)) came to 0.472.

In turn, “TGACATAA (double strand) [8-mer TGACATAA]” gave a binding signal (PBM E-score (-0.5 to 0.5)) of 0.462.

Sequence “TGACGTAA (double strand) [8-mer TGACGTAA]” registered a binding signal (PBM E-score (-0.5 to 0.5)) of 0.453.

Turning to “TTACATAA (double strand) [8-mer TTACATAA]”, the binding signal (PBM E-score (-0.5 to 0.5)) turned out to be 0.488.

“TTACCTAA (double strand) [8-mer TTACCTAA]” registered a binding signal (PBM E-score (-0.5 to 0.5)) of 0.451.

For the sequence “TTATATAA (double strand) [8-mer TTATATAA]”, the binding signal (PBM E-score (-0.5 to 0.5)) came to 0.456.
